This note sets out measurements from patent publication US20170267738A1 (published 2017).

Experiment [1] addresses T1, HEATR5A (peptide HEATR5A-001) peptide on HLA-A*02:01 (human).
T1 peptide: KVLETLVTV
Briefly: cytokine release.

The target in experiment [2] is T2, CNOT1 (peptide CNOT1-003) peptide on HLA-A*02:01 (human).
T2 peptide: KVLGIVVGV
Briefly: cytokine release.

For experiment [3], the target named is T3, MAGEA4 (MAG-003 A6, alanine at position 6) peptide on HLA-A*02:01 (human).
T3 peptide: KVLEHAVRV
Briefly: cytokine release.

For experiment [4], the target named is T4, MAGEA4 (MAG-003 A7, alanine at position 7) peptide on HLA-A*02:01 (human).
T4 peptide: KVLEHVARV
Briefly: cytokine release.

The target in experiment [5] is T5, RABGAP1L (peptide RABGAP1L-001) peptide on HLA-A*02:01 (human).
T5 peptide: FLLETVVRV
Briefly: cytokine release.

Experiment [6] addresses T6, MAGEA4 (MAG-003 A9, alanine at position 9; same residues as SEQ ID NO: 3) peptide on HLA-A*02:01 (human).
T6 peptide: KVLEHVVRA
Briefly: cytokine release.

Experiment [7] has as its target T7, AXIN1 (peptide AXIN1-001) peptide on HLA-A*02:01 (human).
T7 peptide: ILDEHVQRV
Briefly: cytokine release.

For experiment [8], the target named is T8, ANO5 (peptide ANO5-001) peptide on HLA-A*02:01 (human).
T8 peptide: IVMEHVVFL
Briefly: cytokine release.

Experiment [9] deals with T9, TPX2 (peptide TPX2-001) peptide on HLA-A*02:01 (human).
T9 peptide: KILEDVVGV
Briefly: cytokine release.

For experiment [10], the target named is T10, SYNE3 (peptide SYNE3-001) peptide on HLA-A*02:01 (human).
T10 peptide: KLLDLQVRV
Briefly: cytokine release.

Experiment [11] has as its target T11, MIA3 (peptide MIA3-001) peptide on HLA-A*02:01 (human).
T11 peptide: KVLDKVFRA
Briefly: cytokine release.

The target in experiment [12] is T12, HERC4 (peptide HERC4-001) peptide on HLA-A*02:01 (human).
T12 peptide: KVLEILHRV
Briefly: cytokine release.

In experiment [13] the target is T13, PSME2 (peptide PSME2-001) peptide on HLA-A*02:01 (human).
T13 peptide: KVLERVNAV
Briefly: cytokine release.

Experiment [14] deals with T14, MAGEA4 (peptide MAG-003) peptide on HLA-A*02:01 (human).
T14 peptide: KVLEHVVRV
Briefly: multimer staining.

The target in experiment [15] is T15, MAGEA4 (MAG-003 A2, alanine at position 2; same residues as SEQ ID NO: 9) peptide on HLA-A*02:01 (human).
T15 peptide: KALEHVVRV
Briefly: cytokine release.

B1: R10P2G12 (TCR, V domains shown)
Valpha: AQKVTQAQTEISVVEKEDVTLDCVYETRDTTYYLFWYKQPPSGELVFLIRRNSFDEQNEISGRYSWNFQKSTSSFNFTITASQVVDSAVYFCALSEGNSGNTPLVFGKGTRLSVIA
Vbeta: DVKVTQSSRYLVKRTGEKVFLECVQDMDHENMFWYRQDPGLGLRLIYFSYDVKMKEKGDIPEGYSVSREKKERFSLILESASTNQTSMYLCASSLSSGSHQETQYFGPGTRLLVL
B1: the binding result in experiment [1] is reported as “no recognition”; in experiment [2], “no recognition”; in experiment [3], “recognises”; in [4], “recognises”; in [5], “no recognition”; in experiment [6] it was “recognises”. In addition, the binding result in experiment [7], in experiment [8], in [9], in [10], in experiment [11] and in experiment [12] was “no recognition” each time. In addition, the values for the binding result in experiment [13] and in experiment [14] were “no recognition” and “recognises”, respectively.

B2: R20P1H7 (TCR, V domains shown)
Valpha: EDQVTQSPEALRLQEGESSSLNCSYTVSGLRGLFWYRQDPGKGPEFLFTLYSAGEEKEKERLKATLTKKESFLHITAPKPEDSATYLCAVQGENSGYSTLTFGKGTMLLVSP
Vbeta: EAQVTQNPRYLITVTGKKLTVTCSQNMNHEYMSWYRQDPGLGLRQIYYSMNVEVTDKGDVPEGYKVSRKEKRNFPLILESPSPNQTSLYFCASSLGPGLAAYNEQFFGPGTRLTVL
With B2, the binding result in experiment [1] was “no recognition”; in [2] it was “no recognition”; in experiment [15], “recognises”; in [3], “recognises”; in [5], “no recognition”; in experiment [6], “recognises”. Besides, the binding result in [7], in experiment [8], in [9], in experiment [10], in [11] and in [12] was “no recognition” in each case. In addition, the values for the binding result in experiment [13] and in experiment [14] were “no recognition” and “recognises”, respectively.
